Data: PMC6373967
Read-outs that look alike come from different tables or passages of the source.

Legend:
[1] = target: CD155 (Homo sapiens) (UniProt P15151); conditions: cited from earlier work
[2] = target: nectin-1(346t) (human) (UniProt Q15223); assay: SPR; BIAcore 3000, 25°C, HBS-EP pH 7.4; about 2000 RU of nectin-1(346t) or nectin-1(143t) amine-coupled to a CM5 chip; hCD96t flowed at 50 ul/min, 2 min association and 2 min dissociation; 1:1 Langmuir model with drifting baseline, global fit
[3] = target: nectin-1(346t) (human) (UniProt Q15223); assay: as above; remark: listed apart in the source
[4] = target: nectin-1(143t) (human); assay: as above
[5] = target: nectin-1 (Homo sapiens) (UniProt Q15223); conditions: cited from earlier work

Chain of UniProt P15151 (P15151 21-343): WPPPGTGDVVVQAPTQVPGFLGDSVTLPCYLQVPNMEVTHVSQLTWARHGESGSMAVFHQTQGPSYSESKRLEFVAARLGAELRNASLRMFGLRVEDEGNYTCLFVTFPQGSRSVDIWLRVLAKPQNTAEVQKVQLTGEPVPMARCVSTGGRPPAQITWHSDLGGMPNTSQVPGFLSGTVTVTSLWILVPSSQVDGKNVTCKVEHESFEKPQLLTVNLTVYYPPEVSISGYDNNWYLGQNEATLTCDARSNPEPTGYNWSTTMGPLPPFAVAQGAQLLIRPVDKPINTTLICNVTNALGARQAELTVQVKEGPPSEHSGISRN
Chain of nectin-1 (Q15223 31-355): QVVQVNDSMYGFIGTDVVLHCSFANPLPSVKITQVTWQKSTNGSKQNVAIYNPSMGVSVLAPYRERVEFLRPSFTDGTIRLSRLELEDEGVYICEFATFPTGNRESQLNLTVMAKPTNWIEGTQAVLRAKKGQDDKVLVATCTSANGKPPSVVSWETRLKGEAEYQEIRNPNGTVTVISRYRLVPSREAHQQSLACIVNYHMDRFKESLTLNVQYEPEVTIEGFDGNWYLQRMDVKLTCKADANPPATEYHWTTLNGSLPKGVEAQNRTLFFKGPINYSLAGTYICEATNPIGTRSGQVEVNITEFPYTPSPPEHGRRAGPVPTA

**Q.** For CD96 (from UniProt P40200), which Kd [1] is on record?
**A.** 37.6 nM

**Q.** Which Kd [2] does the source give for hCD96(516t) (domain or fragment) here?
**A.** 2340 nM

**Q.** And the Kd [3]?
**A.** 2430 nM

**Q.** And the koff [3]?
**A.** 0.0094 s⁻¹

**Q.** And the kon [3]?
**A.** 3900 M⁻¹ s⁻¹

**Q.** And the Kd [4]?
**A.** 3220 nM

**Q.** And the koff [4]?
**A.** 0.012 s⁻¹

**Q.** What about the kon [4] of the same substance?
**A.** 3200 M⁻¹ s⁻¹

**Q.** Which Kd [5] does the source give for nectin-1 (from UniProt Q15223) here?
**A.** 17500 nM
